Assay results from patent JP2020002075A.

Key:
[1] = target: ポドプラニン (ポドプラニン提示CHO細胞, 種の記載なし); assay: binding to podoplanin-displaying CHO cells; reference clone 1 scFv
[2] = target: ポドプラニン (ポドプラニン提示CHO細胞, 種の記載なし); assay: flow cytometry; cells and species not named at this place

fold increase of affinity against the scFv (clone 1) [1]: 100 fold | Kd [2]: 1.7 nM
B1: clone 1から作製したdiabody (protein)
chain: EVQLKESGGGLVQSGGSLRLSCAASGFSLTDYGVNWVRQAPGKGLEWVGVIWGGGNTYYNSALKSRFTISKDNSKNTLYLQMNSLRAEDTAVYYCAKHRGAWGQGTLVTVSAGGGGSDIVMTQSPSTLAVSLGEKATINCKSSKSLLNSGNQKNYLIWYQQKPGQPPKLLIYGASTRESGVPDRFSGSVSGTDFTLTISSLQAEDLAVYYCQNDHTYPLTFGQGTKVEIKRTV
